± gives the standard deviation of the averaged measurements.
Test system: ATP
Assay: switch fluorescence ratio, 500 uM ATP over buffer (Cy3 cluster intensity, sum of 5 cycles each) (fold (ratio)); higher = stronger signal-on switching upon ATP binding; sequences stand for … in TCGTCGGCAGCGTCAGATGTGTATAAGAGACAGTTTTTTTTTTTTTTTTTTTTTTTTT…TC
Settings: aptamer strand: ATP DNA aptamer (quencher-CACCTGGGGGAGTATTGCGGAGGAAGG + anchor), 100 nM annealed; ATP concentration: 500 uM
Summary of the method: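 For every switch-domain sequence, the fluorescence ratio is the mean of per-cluster values, each being summed target-cycle Cy3 intensity over summed buffer-cycle Cy3 intensity. Clusters outside 100-1000 RFU were excluded. On a modified Illumina MiSeq flow-cell, the Cy3-labelled switching-strand clusters were annealed to 100 nM quencher-labelled ATP aptamer, imaged in selection buffer and then after 15 min with 500 uM ATP at 22 °C. Five such cycles were run, with NaOH stripping and re-annealing between them.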
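Further: ATP exposure 15 min at 22 °C before imaging.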

Row | Sequence | switch fluorescence ratio
1 | TTTGTTCGTG | 0.96 ± 0.028
2 | ATTTTAATTG | 1.02 ± 0.016
3 | CCTTAGTGAC | 1.36 ± 0.069
4 | TAAGCGAGTG | 0.9832 ± 0.0032
5 | TTAGGTTGCT | 1.1 ± 0.14
6 | GCGAATGCGG | 1.006 ± 0.003
7 | TGAGAAGTTT | 0.992 ± 0.023
8 | TCGAAGTCAG | 1.06 ± 0.044
9 | AGTGAATTTT | 0.988 ± 0.064
10 | GGAAGGGGGT | 1.01 ± 0.12
11 | ATTGGGGGAC | 0.98 ± 0.03
12 | AATTTTTTCA | 0.99 ± 0.018
13 | CTTACGGCAC | 1.82 ± 0.062
14 | CTCGGGCAGG | 1.01 ± 0.032
15 | TTTAGTTGAG | 0.971 ± 0.025
16 | GATTCATCTA | 0.983 ± 0.029
17 | AAGTGGTCTG | 0.983 ± 0.017
18 | TTAAGGGAAA | 1.02 ± 0.02
19 | GCTATCTGCT | 0.976 ± 0.06
20 | GTGGATTGGT | 0.974 ± 0.013
21 | TTTAGTTTCG | 1.02 ± 0.025
22 | ATGTAGGTTG | 0.988 ± 0.029
23 | TAGACTTTTT | 0.997 ± 0.03

Row | Sequence | switch fluorescence ratio
24 | CACCGGTGTT | 1.02 ± 0.032
25 | TTGCTCGAAA | 0.987 ± 0.075
26 | TGATGCACGG | 1.04 ± 0.021
27 | TATAGACTTA | 0.994 ± 0.026
28 | TATGGTCAGT | 0.968 ± 0.047
29 | TTATTAGGGG | 0.983 ± 0.028
30 | TTGAGTGTGC | 1.02 ± 0.023
31 | TTTGGTTCTT | 1.02 ± 0.033
32 | ACGACGTGGG | 1 ± 0.024
33 | ATGGAGGCGG | 1.04 ± 0.04
34 | TGTCGGGATT | 1.03 ± 0.053
35 | AGGGTTGTTG | 0.999 ± 0.015
36 | GATGAGTGGT | 0.979 ± 0.02
37 | TGTTTTGGTT | 0.991 ± 0.025
38 | GGAGAGGGCA | 1.016 ± 0.0077
39 | AGAGAAGGGA | 1.002 ± 0.0071
40 | CAATGTAGGT | 1.02 ± 0.02
41 | TTCGTATAGC | 1.03 ± 0.036
42 | CGATGGCTA | 0.965 ± 0.041
43 | ATGTCAGAGG | 0.977 ± 0.041
44 | TGAACGTCCA | 1.09 ± 0.015
45 | AGACGGAAAG | 0.982 ± 0.015
46 | TCAAGATGTG | 0.99 ± 0.036

Row | Sequence | switch fluorescence ratio
47 | CGGCTTTATA | 1.02 ± 0.028
48 | TGTGATTTAT | 1.0046 ± 0.00072
49 | CTCGAATGTA | 0.994 ± 0.014
50 | GTGTTAAAAT | 1.01 ± 0.018
51 | TGTTCAGACG | 1.03 ± 0.053
52 | AGGAATTGAA | 0.982 ± 0.028
53 | TAACGGGGGA | 1.01 ± 0.062
54 | CAGGTCACTG | 0.965 ± 0.044
55 | TTCATTCATT | 0.982 ± 0.015
56 | GTTTTGATTG | 1 ± 0.04
57 | TCTAGGCCTC | 1.019 ± 0.0038
58 | AATTGCTACC | 1.07 ± 0.013
59 | ATAAGAATTG | 1.01 ± 0.06
60 | CATATATGTC | 1 ± 0.056
61 | CTTACTATTG | 1.03 ± 0.05
62 | AGAGGGGTTC | 1.01 ± 0.029
63 | TTTGTGATAA | 0.969 ± 0.057
64 | ATAGGGGGGC | 1.01 ± 0.074
65 | GCGGAAAGGA | 1 ± 0.038
66 | AGGCAGTGGG | 0.998 ± 0.028
67 | GGGCTTCTTG | 0.962 ± 0.021
68 | CTTGGGTCTG | 1 ± 0.066
69 | CATTTATATG | 1.02 ± 0.026

Row | Sequence | switch fluorescence ratio
70 | TTTGTAGTGT | 0.999 ± 0.026
71 | AAATTCGAAG | 0.982 ± 0.011
72 | TTCTTTAATT | 0.963 ± 0.01
73 | TCTTGGGGGA | 0.996 ± 0.031
74 | TGAAAAAAAG | 0.973 ± 0.04
75 | GATGTTTTTC | 0.97003 ± 0.00087
76 | GGAGGCCTCG | 0.982 ± 0.018
77 | GACGTTTAAT | 1.021 ± 0.0057
78 | AGGATAGTTG | 0.982 ± 0.038
79 | CAAGGGTGGT | 1.03 ± 0.023
80 | AGGTATTTGA | 0.984 ± 0.054
81 | TTGAGTACGT | 0.992 ± 0.045
82 | GCGTGTAGAT | 1.04 ± 0.036
83 | AGTAACCAAA | 1.04 ± 0.097
84 | AAAAGCTTAT | 1.05 ± 0.03
85 | AGCATTATCT | 1.09 ± 0.03
86 | TTCAGACCGT | 1.016 ± 0.0064
87 | GTCACCGACT | 1 ± 0.013
88 | CAATGGAGGG | 0.992 ± 0.033
89 | ATTGGGGGCC | 0.967 ± 0.028
90 | GTTGTAGTCT | 1.02 ± 0.023
91 | ACTTTTTTAA | 1.004 ± 0.0029
92 | ATATGCGTAT | 1.01 ± 0.02

Row | Sequence | switch fluorescence ratio
93 | TTTTTTAAAC | 0.996 ± 0.013
94 | CGGGGACGGG | 1.02 ± 0.013
95 | TGGTGTCGTG | 0.999 ± 0.034
96 | GGTAGGGATG | 0.962 ± 0.024
97 | AGCAGGGGTG | 1.09 ± 0.013
98 | AATAGACTT | 0.999 ± 0.013
99 | TACATATGGT | 1.03 ± 0.0018
100 | GCTGATATGG | 1.02 ± 0.054
101 | GCCAATTAAT | 1.01 ± 0.012
102 | ACGGGGGTAA | 1.18 ± 0.3
103 | GGTATGTACG | 1.03 ± 0.054
104 | GAGGGTCCGG | 0.991 ± 0.035
105 | TGCGGGCGTT | 0.993 ± 0.013
106 | TTATTTGGAT | 0.9897 ± 0.005
107 | GCTGATTAG | 0.954 ± 0.011
108 | TAAAGGGATC | 0.978 ± 0.017
109 | CAGTCGTGGA | 0.969 ± 0.016
110 | GGGAGACAGA | 0.957 ± 0.074
111 | ATCACGCGTA | 1.02 ± 0.037
112 | TTTAACGATA | 1.07 ± 0.015
113 | TACCTCATGG | 1.01 ± 0.054
114 | GTTTTAAAGG | 0.984 ± 0.031
115 | TCGATGGTTT | 1.013 ± 0.01

Row | Sequence | switch fluorescence ratio
116 | TGCAGTATGG | 0.997 ± 0.019
117 | CGAATCGCCT | 1 ± 0.022
118 | ACTGGAAGTC | 0.9875 ± 0.0088
119 | ACATCGGGTG | 1.42 ± 0.59
120 | CAGGTTTTTT | 0.989 ± 0.019
121 | AGGTTATACG | 1.01 ± 0.022
122 | ATCGATGGGT | 1.03 ± 0.047
123 | TTTTAGGAAG | 0.9937 ± 0.0097
124 | TCGGGAGAAG | 1.01 ± 0.013
125 | TGCTGCTGAG | 0.971 ± 0.016
126 | TGGCGTGTTA | 1.02 ± 0.044
127 | CAGCCGGGTG | 1.3412 ± 0.0003
128 | TCTTTGGTTT | 1.17 ± 0.25
129 | ATGGCCGGTG | 1.006 ± 0.004
130 | CTGAGGAAGT | 0.9908 ± 0.0088
131 | GCACGGGGGT | 1.05 ± 0.045
132 | CACCTGTCCG | 1.06 ± 0.02
133 | AAGGGGACAC | 1.02 ± 0.014
134 | TGAAGATTTA | 1.03 ± 0.017
135 | AAAAAAAGCA | 1.04 ± 0.05
136 | AAAATGAACG | 1.08 ± 0.047
137 | TAGGGGACCG | 0.991 ± 0.017
138 | GATTTACATT | 1.019 ± 0.0024

Row | Sequence | switch fluorescence ratio
139 | AAACTGCTCG | 1.04 ± 0.064
140 | TGGGTTTTGC | 0.994 ± 0.044
141 | GCCGGTTAGA | 0.998 ± 0.03
142 | AACGTTCCTG | 1.35 ± 0.11
143 | CGGGGGCATG | 1.013 ± 0.0094
144 | CAAGTCTAGA | 0.995 ± 0.026
145 | AGGGTGTTTG | 1.01 ± 0.019
146 | GGGGGCGGCG | 1 ± 0.051
147 | TTCGGTTGGT | 1.01 ± 0.029
148 | CGGTATGGGG | 1 ± 0.029
149 | AGGCCGAGTC | 1.02 ± 0.054
150 | TCGAAATAGG | 1.005 ± 0.0023
151 | CCGCCCGGAT | 1.14 ± 0.018
152 | GTCATAGTGG | 0.9804 ± 0.003
153 | CATGCAGCAT | 1.11 ± 0.02
154 | GCGTAAGCAG | 0.981 ± 0.012
155 | CTAGCGGCCA | 0.991 ± 0.012
156 | AATGGCAGGG | 0.988 ± 0.039

— the supplement of paper PMC10126150
